Experimental data from US20180318386A1, “PEPTIDES AND METHODS OF TREATING ENDOMETRIOSIS USING THE SAME” (BIOINCEPT, LLC, priority 2014, published 2018).

Legend:
Assay in all cases: PIF affinity resin pull-down, CD14+ cell lysate, LC-MS/MS count
[1] = target: 14-3-3 protein gamma (human) (UniProt P61981)
Myosin-9 (human) = Myosin-9 (human) (UniProt P35579)
Annexin A1 (human) = Annexin A1 (human) (UniProt P04083)
Hornerin (human) = Hornerin (human) (UniProt Q86YZ3)
Endoplasmin (human) = Endoplasmin (human) (UniProt P14625)
Endoplasmin (human), sequence (P14625 22-803 limits assumed): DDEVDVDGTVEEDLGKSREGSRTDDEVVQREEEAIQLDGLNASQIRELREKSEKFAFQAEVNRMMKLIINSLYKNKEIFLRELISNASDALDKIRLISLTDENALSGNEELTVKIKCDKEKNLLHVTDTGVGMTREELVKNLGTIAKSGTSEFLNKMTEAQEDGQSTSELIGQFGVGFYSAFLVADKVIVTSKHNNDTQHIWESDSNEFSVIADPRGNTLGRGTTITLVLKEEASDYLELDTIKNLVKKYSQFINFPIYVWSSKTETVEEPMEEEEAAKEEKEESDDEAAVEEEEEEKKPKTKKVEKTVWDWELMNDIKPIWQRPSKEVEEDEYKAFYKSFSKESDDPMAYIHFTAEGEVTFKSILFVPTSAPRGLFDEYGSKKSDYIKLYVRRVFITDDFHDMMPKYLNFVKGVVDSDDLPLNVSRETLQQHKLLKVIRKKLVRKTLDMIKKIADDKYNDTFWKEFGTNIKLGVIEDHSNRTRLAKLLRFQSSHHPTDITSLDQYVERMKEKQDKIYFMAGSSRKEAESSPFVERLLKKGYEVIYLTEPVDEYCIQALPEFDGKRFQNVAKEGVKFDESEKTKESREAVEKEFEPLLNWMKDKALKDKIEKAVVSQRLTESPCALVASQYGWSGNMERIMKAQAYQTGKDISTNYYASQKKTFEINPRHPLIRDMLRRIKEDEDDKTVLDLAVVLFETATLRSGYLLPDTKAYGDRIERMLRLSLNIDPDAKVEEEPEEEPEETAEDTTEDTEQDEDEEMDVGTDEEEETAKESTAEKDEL

Filamin-A (human) = Filamin-A (human) (UniProt P21333)
Vimentin (human) = Vimentin (human) (UniProt P08670)
Vimentin (human), sequence (P08670 2-466 limits assumed): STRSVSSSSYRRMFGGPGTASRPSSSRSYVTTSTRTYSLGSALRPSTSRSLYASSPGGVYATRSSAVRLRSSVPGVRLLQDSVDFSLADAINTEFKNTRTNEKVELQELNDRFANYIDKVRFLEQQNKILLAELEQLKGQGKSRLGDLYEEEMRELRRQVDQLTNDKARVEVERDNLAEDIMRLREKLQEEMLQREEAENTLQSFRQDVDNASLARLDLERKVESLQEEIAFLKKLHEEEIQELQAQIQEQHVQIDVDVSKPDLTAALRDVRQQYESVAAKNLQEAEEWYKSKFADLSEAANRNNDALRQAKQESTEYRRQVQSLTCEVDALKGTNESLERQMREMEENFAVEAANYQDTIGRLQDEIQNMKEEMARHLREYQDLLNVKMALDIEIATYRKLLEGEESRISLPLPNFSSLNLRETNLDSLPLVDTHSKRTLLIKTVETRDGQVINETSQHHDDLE

Histone H4 (human) = Histone H4 (human) (UniProt P62805)
[2] = target: Tropomyosin alpha-4 chain (human) (UniProt P67936)
Tropomyosin alpha-4 chain (human), sequence (P67936 2-248 limits assumed): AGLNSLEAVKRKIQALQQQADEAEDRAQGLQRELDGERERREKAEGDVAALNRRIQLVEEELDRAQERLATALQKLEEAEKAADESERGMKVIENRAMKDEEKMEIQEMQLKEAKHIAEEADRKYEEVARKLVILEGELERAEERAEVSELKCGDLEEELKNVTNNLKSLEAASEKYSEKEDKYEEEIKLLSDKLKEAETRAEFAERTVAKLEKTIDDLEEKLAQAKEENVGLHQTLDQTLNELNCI

Matrin-3 (human) = Matrin-3 (human) (UniProt A8MXP9)
Calmodulin (human) = Calmodulin (human) (UniProt P0DP23)
[3] = target: Histone-binding protein RBBP7 (human) (UniProt Q16576)
Thymosin alpha-1 (human) = Thymosin alpha-1 (human) (UniProt P06454)
Thymosin alpha-1 (human), sequence (P06454 other isoform, or with tags, fused parts or gaps limits assumed): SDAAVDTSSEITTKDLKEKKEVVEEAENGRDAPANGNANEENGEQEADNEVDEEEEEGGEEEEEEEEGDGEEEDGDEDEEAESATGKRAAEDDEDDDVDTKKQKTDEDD

Plastin-2 (human) = Plastin-2 (human) (UniProt P13796)
Plastin-2 (human), sequence (P13796 2-627 limits assumed): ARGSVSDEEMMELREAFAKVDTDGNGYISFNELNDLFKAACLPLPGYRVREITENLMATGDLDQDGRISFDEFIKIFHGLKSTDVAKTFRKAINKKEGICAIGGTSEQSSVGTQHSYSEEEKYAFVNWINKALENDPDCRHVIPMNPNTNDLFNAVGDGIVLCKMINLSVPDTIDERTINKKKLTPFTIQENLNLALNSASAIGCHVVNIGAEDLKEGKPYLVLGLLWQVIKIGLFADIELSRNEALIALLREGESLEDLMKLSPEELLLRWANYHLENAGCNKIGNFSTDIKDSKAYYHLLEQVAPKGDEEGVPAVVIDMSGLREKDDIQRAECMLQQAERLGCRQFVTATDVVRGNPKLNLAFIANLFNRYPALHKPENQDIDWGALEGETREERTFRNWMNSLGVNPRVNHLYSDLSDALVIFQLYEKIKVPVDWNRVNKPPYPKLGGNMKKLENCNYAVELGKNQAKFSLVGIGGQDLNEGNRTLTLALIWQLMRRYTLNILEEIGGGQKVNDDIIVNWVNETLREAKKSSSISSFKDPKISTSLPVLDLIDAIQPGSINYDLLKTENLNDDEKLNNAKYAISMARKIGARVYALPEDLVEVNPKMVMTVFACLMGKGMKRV

[4] = target: Isoform H14 of Myeloperoxidase (human) (UniProt P05164)
Isoform H14 of Myeloperoxidase (human), sequence (P05164 165-745 limits assumed): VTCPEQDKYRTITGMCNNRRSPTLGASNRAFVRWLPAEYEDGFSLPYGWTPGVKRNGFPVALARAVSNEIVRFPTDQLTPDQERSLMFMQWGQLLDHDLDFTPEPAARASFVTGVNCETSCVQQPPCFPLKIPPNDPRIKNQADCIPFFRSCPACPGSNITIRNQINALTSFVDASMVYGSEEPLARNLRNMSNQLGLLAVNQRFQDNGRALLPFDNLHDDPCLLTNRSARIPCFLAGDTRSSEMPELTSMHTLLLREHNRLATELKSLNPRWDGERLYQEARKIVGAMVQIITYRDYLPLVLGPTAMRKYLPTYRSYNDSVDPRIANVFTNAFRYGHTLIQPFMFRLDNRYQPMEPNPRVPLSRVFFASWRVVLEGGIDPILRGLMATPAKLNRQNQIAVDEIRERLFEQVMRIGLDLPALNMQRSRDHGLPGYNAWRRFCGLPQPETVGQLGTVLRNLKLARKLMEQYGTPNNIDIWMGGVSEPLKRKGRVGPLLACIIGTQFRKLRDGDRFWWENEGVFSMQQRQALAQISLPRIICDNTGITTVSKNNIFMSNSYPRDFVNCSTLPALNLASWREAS

[5] = target: Isoform SV of 14-3-3 protein epsilon (human) (UniProt P62258)
Isoform SV of 14-3-3 protein epsilon (human), sequence (P62258 23-255 limits assumed): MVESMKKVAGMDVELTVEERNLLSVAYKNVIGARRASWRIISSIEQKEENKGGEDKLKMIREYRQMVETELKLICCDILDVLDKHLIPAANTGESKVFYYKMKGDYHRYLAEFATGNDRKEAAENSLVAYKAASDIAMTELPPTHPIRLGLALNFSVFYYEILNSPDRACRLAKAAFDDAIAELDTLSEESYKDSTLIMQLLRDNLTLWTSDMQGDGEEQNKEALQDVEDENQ

Myosin-9 (human), sequence (P35579 2-1960 limits assumed): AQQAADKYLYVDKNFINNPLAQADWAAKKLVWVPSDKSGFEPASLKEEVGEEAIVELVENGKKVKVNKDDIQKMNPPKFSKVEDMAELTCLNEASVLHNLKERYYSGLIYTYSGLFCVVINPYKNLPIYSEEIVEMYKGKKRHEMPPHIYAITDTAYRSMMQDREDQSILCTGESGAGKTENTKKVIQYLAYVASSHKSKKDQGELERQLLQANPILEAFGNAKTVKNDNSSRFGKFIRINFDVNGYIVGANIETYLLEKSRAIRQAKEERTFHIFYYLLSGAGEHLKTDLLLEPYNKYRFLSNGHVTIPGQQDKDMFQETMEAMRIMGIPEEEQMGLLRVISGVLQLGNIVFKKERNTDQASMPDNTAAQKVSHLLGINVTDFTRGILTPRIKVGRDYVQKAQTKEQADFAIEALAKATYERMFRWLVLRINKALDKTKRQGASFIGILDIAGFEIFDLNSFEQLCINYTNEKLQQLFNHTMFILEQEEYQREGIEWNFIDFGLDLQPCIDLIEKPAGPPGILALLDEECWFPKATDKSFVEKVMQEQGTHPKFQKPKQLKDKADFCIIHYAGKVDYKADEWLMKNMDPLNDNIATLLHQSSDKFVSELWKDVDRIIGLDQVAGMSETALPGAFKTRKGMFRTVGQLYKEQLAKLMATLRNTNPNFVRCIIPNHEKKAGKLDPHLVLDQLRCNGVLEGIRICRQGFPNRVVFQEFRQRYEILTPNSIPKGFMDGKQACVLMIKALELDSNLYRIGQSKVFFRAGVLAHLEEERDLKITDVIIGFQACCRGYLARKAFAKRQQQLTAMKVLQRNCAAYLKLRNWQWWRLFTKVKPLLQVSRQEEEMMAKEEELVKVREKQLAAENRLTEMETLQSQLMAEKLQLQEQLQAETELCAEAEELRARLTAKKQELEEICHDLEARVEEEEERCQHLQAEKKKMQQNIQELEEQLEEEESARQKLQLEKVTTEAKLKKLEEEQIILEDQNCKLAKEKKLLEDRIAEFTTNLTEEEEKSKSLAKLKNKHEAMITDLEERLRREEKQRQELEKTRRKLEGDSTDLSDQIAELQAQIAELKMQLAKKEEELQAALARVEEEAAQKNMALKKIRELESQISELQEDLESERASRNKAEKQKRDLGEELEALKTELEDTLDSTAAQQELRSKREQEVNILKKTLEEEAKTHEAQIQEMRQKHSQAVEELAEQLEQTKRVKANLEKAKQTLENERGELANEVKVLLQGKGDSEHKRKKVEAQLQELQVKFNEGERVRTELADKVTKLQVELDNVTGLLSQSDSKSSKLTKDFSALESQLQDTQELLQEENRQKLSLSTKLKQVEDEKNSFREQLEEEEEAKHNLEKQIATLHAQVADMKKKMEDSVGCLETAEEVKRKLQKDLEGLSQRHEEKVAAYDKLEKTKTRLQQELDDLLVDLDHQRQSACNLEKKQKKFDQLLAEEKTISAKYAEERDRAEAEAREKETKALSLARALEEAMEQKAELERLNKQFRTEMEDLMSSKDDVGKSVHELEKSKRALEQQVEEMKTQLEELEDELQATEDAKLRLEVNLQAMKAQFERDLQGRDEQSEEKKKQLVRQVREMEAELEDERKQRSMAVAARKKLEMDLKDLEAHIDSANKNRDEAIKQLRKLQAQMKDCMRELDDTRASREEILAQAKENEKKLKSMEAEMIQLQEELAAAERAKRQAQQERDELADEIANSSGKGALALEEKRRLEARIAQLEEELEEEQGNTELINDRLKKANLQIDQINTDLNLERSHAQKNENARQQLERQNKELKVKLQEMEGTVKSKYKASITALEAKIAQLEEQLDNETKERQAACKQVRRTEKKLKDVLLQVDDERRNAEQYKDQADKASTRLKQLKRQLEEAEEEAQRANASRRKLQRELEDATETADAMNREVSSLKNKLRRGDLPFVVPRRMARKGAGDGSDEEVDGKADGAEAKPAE

Substance “PIF15 affinity resin (Cys-C6 spacer-PIF15 conjugated to agarose) (peptide)” has an Ave [1] of 3, an Inject 1 [1] of 3 and an Inject 2 [1] of 3. It also gave an Inject 3 [1] of 3, an Ave (Myosin-9 (human)) of 10 and an Inject 1 (Myosin-9 (human)) of 11. It also gave an Inject 2 (Myosin-9 (human)) of 9, an Inject 3 (Myosin-9 (human)) of 10 and an Ave (Annexin A1 (human)) of 1. The Inject 1 (Annexin A1 (human)) was 0, the Inject 2 (Annexin A1 (human)) was 0 and the Inject 3 (Annexin A1 (human)) was 2. The Ave (Hornerin (human)) was 1, the Inject 1 (Hornerin (human)) was 1 and the Inject 2 (Hornerin (human)) was 0. For the same substance, the Inject 3 (Hornerin (human)) was 2, the Ave (Endoplasmin (human)) was 1 and the Inject 1 (Endoplasmin (human)) was 0. It also gave an Inject 2 (Endoplasmin (human)) of 2, an Inject 3 (Endoplasmin (human)) of 1 and an Ave (Filamin-A (human)) of 5. For the same substance, the Inject 1 (Filamin-A (human)) was 5, the Inject 2 (Filamin-A (human)) was 3 and the Inject 3 (Filamin-A (human)) was 7. It also gave an Ave (Vimentin (human)) of 10, an Inject 1 (Vimentin (human)) of 9 and an Inject 2 (Vimentin (human)) of 11. The Inject 3 (Vimentin (human)) was 9, the Ave (Histone H4 (human)) was 2 and the Inject 1 (Histone H4 (human)) was 3. It also gave an Inject 2 (Histone H4 (human)) of 0, an Inject 3 (Histone H4 (human)) of 2 and an Ave [2] of 8. The Inject 1 [2] was 8, the Inject 2 [2] was 7 and the Inject 3 [2] was 8. The Ave (Matrin-3 (human)) was 1, the Inject 1 (Matrin-3 (human)) was 1 and the Inject 2 (Matrin-3 (human)) was 2. The Inject 3 (Matrin-3 (human)) was 1, the Ave (Calmodulin (human)) was 4 and the Inject 1 (Calmodulin (human)) was 6. It also gave an Inject 2 (Calmodulin (human)) of 4, an Inject 3 (Calmodulin (human)) of 3 and an Ave [3] of 1. The Inject 1 [3] was 2, the Inject 2 [3] was 0 and the Inject 3 [3] was 1. For the same substance, the Ave (Thymosin alpha-1 (human)) was 5, the Inject 1 (Thymosin alpha-1 (human)) was 5 and the Inject 2 (Thymosin alpha-1 (human)) was 5. It also gave an Inject 3 (Thymosin alpha-1 (human)) of 4, an Ave (Plastin-2 (human)) of 1 and an Inject 1 (Plastin-2 (human)) of 1. The Inject 2 (Plastin-2 (human)) was 1, the Inject 3 (Plastin-2 (human)) was 2 and the Ave [4] was 2. For the same substance, the Inject 1 [4] was 2, the Inject 2 [4] was 2 and the Inject 3 [4] was 2. For the same substance, the Ave [5] was 3, the Inject 1 [5] was 4 and the Inject 2 [5] was 4. It also gave an Inject 3 [5] of 2.
